From patent publication US20240343803A1 (SHANDONG SIMCERE BIOPHARMACEUTICAL, published 2024) come the findings set out here.

Residue numbers refer to the chain shown, from its start. Where “and” joins values, the source holds several entries; their conditions need not be identical. Equal values may be shown once. Read-outs that look alike come from different tables or passages of the source.

The EC50 (read off the curve) is the midpoint of the concentration-response curve.

The target in experiment [1] is T1, human PVRIG-his (AcroBiosystems, Cat NO. PVG-H52H4) (human, UniProt Q6DKI7 41-171, limits assumed).
T1 construct: treated as the same protein; also called human PVRIG-His protein; Human PVRIG-His, Acro C227P1-9ARF1-T4
T1 sequence (looked up): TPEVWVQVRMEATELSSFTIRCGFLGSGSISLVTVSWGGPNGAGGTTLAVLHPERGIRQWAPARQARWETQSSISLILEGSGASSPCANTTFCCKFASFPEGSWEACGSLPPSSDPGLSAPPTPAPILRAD
Description: competition ELISA on coated human PVRIG-his; blocked ligand human PVRL2-mFc. In short, it runs like this:
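Wells were coated with 0.5 μg/mL human PVRIG-his. Bound ligand was read by HRP/TMB absorbance, and IC50 came from a four-parameter logistic fit of OD against antibody concentration.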

The target in experiment [2] is T2, human PVRIG-mFc protein (Acro, PVG-H5253) (human, UniProt Q6DKI7 41-171, limits assumed).
T2 construct: bought reagent; also called PVRIG-ECD-mFc
T2 sequence (looked up): T1 sequence (looked up)
Description: competition FACS; blocked: human PVRIG-mFc binding to CHO-K1-CD112 cells. In a few lines:
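In this competition flow cytometry assay, the IC50 was taken from the curve of mean fluorescence intensity against antibody dilution. Antibodies and human PVRIG-mFc were premixed at 4° C for 30 min, then incubated with Zombie violet-stained CHO-K1-CD112 cells for 30 min at 4° C. PE goat anti-mouse IgG Fc (1:250) detected bound PVRIG-mFc on a BD Canto II.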

Experiment [3] deals with T3, cynomolgus monkey PVRIG (Novoprotein, Cat NO. C09B) (cynomolgus monkey, UniProt A0A2K5WVV8 41-171).
T3 construct: bought reagent; also called cynomolgus monkey PVRIG recombinant protein
T3 sequence: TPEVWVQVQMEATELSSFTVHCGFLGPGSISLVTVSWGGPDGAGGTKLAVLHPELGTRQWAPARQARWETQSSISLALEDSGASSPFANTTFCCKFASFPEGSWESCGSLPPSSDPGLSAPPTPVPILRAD
Description: ELISA, coated cynomolgus monkey PVRIG. Here is the method:
(§1) The ELISA plate was pre-coated with 100 μL/well of 0.5 μg/mL human PVRIG-his (AcroBiosystems, Cat NO. PVG-H52H4) or cynomolgus monkey PVRIG (Novoprotein, Cat NO. C09B). […] A HRP substrate, TMB (Thermo, Cat NO. 34029) was added into wells after washing the plate again for color development. After adding a termination solution to terminate the reaction, the absorbance value was read by a microplate reader (MD i3×). An antibody binding curve was drawn with concentration of antibodies as the abscissa and the corresponding OD value as the ordinate. The EC50 value was calculated by using a Four Parameter Logistic Fit (GraphPadPrism9). The smaller the EC50 value, the stronger the ability of the antibodies binds to human or cynomolgus monkey PVRIG. The positive control antibodies are COM701-hIgG1 (Patent No.:US20180244774A1), COM701-hIgG4 (patent No.: US20180244774A1) and SRF813-hIgG1 (Patent No.:US20200040081A1); and the negative control antibodies are anti-HA HcAb-hIgG1 (Chengdu NB Biolab, Cat NO. NBR022), anti-CD38 HcAb-hIgG1 (in-house) and anti-Fluorescein-hIgG1 (in house).
(In general: In an ELISA, binding on a coated surface is turned into a signal by an enzyme label.)

In experiment [4] the target is T1, human PVRIG-his (AcroBiosystems, Cat …). Description: ELISA, coated human PVRIG-his. The procedure: as §1
The target of experiment [5] is T2, human PVRIG-mFc protein (Acro, …). The experiment is described as follows: competition FACS; blocked: PVRIG-mFc binding to CHO-K1 CD112 cells. Here is the method:
The Ham's F12 (Gibico, 21127-022) complete medium containing 10% FBS was then added to stop the digestion and acquire cell suspension. After counting with a cell counter (Beckman Coulter, Vi-CELL), an appropriate amount of cell suspension was centrifuged at 350×g to remove the supernatant, washed twice with PBS, stained with Zombie violet (Biolegend, 423114) and incubated at room temperature for 20 minutes. After incubation, the cells were added with staining buffer (2% FBS+PBS) to stop staining, centrifuged at 350×g to remove the supernatant, washed twice and resuspended with staining buffer to a density of 2×10⁶ cells/mL. The cells were plated into a 96-well plate (50 μL of cell suspension per well) for further use. A working solution of human PVRIG-mFc protein (Acro, PVG-H5253) prepared with staining buffer, 1 μg/mL (four-fold concentration), was added into a 96-well plate (50 μL PVRIG-mFc working solution per well). […] The diluted antibodies were added to the well containing 50 μL of PVRIG-mFc. The plate was placed on a microplate shaker at 400 rpm for 1 minute to fully mix the antibodies and PVRIG-mFc proteins, and then incubated at 4° C. for 30 minutes. After the incubation, the cell suspension prepared above (100 μL) was added into the wells, gently mixed with the pipette tip and incubated at 4° C. for 30 minutes. After the incubation, the cells were washed twice with staining buffer (200 μL per well) and centrifuged at 350×g for 5 minutes to discard the supernatant. The PE goat anti-mouse IgG Fc antibody (Biolegend, 405337) was diluted 250 times with staining buffer, added into the washed wells (100 μL per well), mixed well, and stained at 4° C. for 30 minutes. After staining, the cells were washed twice with staining buffer, finally resuspended with 200 μL staining buffer and analyzed by flow cytometry (BD, Canto II). The weaker the fluorescence signal, the stronger the ability of the antibodies blocks the binding of CHO-K1 human CD112 cells to the PVRIG-mFc protein.

For experiment [6] the target is unchanged. Description: competition FACS; blocked: human PVRIG-mFc binding to CHO-K1-CD112 cells. In short, it runs like this:
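Antibody dilutions premixed with human PVRIG-mFc (working solution 1 μg/mL, four-fold concentration) for 30 min at 4° C, then incubated with CHO-K1-CD112 cells 30 min at 4° C. Bound PVRIG-mFc detected by PE anti-mouse IgG Fc flow cytometry; IC50 and AUC from four-parameter fit of MFI versus antibody concentration.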
The source holds these as a separate data set.

Experiment [7] concerns the target T4, human PVRIG on FlpinCHO-PVRIG cells (human, UniProt Q6DKI7 41-326).
T4 construct: whole, on cells; also called FlpinCHO-hPVRIG; FlpinCHO-human PVRIG
T4 sequence (looked up): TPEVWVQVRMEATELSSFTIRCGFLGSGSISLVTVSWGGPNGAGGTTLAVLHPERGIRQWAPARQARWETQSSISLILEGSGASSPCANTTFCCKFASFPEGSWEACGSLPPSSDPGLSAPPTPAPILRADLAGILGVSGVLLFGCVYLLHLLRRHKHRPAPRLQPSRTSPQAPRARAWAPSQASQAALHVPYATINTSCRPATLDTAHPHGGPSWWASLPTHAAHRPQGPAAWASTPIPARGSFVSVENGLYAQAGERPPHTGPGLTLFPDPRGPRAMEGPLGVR
Description: FACS, FlpinCHO-PVRIG cells. The procedure: After discarding the cell culture medium, the cells were rinsed with PBS and digested for 8-10 minutes by adding 1 mL Versene (Gibico, 15040-066). The Ham's F12 (Gibico, 21127-022) complete medium containing 10% FBS was then added to terminate the digestion and acquire cell suspension. After counting with a cell counter (Beckman Coulter, Vi-CELL), an appropriate amount of cell suspension was centrifuged at 350×g to remove the supernatant, washed twice with PBS, stained with Zombie violet (Biolegend, 423114) and incubated at room temperature for 20 minutes. After incubation, the cells were added with staining buffer (2% FBS+PBS) to stop staining, centrifuged at 350×g to remove the supernatant, washed twice and resuspended with staining buffer to a density of 2×10⁶ cells/mL. The cells were plated into a 96-well plate (50 μL of cell suspension per well) for further use. The antibodies were diluted from the highest concentration of 46 nM (two-fold concentration) with staining buffer by 3.3-fold serial dilution. The diluted antibodies were added to the well containing 50 μL of cell suspension. The plate was placed on a microplate shaker at 400 rpm for 1 minute to fully mix the antibodies and cells, and then incubated at 4° C. for 30 minutes. After the incubation, the cells were washed twice with staining buffer (200 μL per well) and centrifuged at 350×g for 5 minutes to discard the supernatant. The PE goat anti-human IgG Fc antibody (ebioscience, 12-4998-82) was diluted 250 times with staining buffer, added into the washed wells (100 μL per well), mixed well, and stained at 4° C. for 30 minutes. After staining, the cells were washed twice with staining buffer, finally resuspended with 200 μL staining buffer and analyzed by flow cytometry (BD, Canto II). The stronger the signal, the stronger the ability of the antibodies binds to PVRIG. An antibody binding curve was drawn with concentration of antibodies as the abscissa and the corresponding Mean Fluorescence Intensity (MFI) as the ordinate. The AUC value of the curve was calculated by using a Four Parameter Logistic Fit (GraphPadPrism9).
A general note: Flow cytometry measures light scatter and fluorescence of single cells or particles in a stream.

Experiment [8] addresses T1, human PVRIG-his (AcroBiosystems, Cat …). Description: competition ELISA on coated human PVRIG-his; blocked ligand human PVRL2-mFc. Here is the method: The ELISA plate was pre-coated with 100 μL/well of 0.5 μg/mL human PVRIG-his protein (AcroBiosystems, Cat NO. PVG-H52H4). The tested anti-PVRIG antibodies were diluted from the highest concentration of 16 nM (two-fold concentration). The diluted antibodies were mixed with 18 ng/ml human PVRL2-mFc (AcroBiosystems, Cat NO. CD2-H5257) in equal volume, added into the plate (100 μL/well), and incubated with shaking at room temperature for 2.0 hours. […] A HRP substrate, TMB (Thermo, Cat NO. 34029) was added into wells after washing the plate again for color development. After adding a termination solution to terminate the reaction, the absorbance value was read by a microplate reader (MD i3×). An inhibiting curve was drawn with concentration of antibodies as the abscissa and the corresponding OD value as the ordinate. The IC50 value was calculated by using a Four Parameter Logistic Fit (GraphPadPrism9). The smaller the IC50 value, the stronger the ability of the antibodies inhibits the binding between PVRIG and PVRL2. The positive and negative controls are the same as in Example 8.
The methods refer to Example 11. The inhibiting activity of the humanized antibodies was normalized to the corresponding parental antibodies. If the percentage value is higher than 100%, the inhibiting effect of humanized antibodies is better than that of parental antibodies.
The source holds these as a separate data set.

B1: COM701-hIgG4 (antibody, V domains shown)
VH: QVQLVQSGAEVKKPGASVKVSCKASGYTFTDYNINWVRQAPGQGLEWMGYIYPYIGGSGYAQKFQGRVTMTRDTSTSTVYMELSSLRSEDTAVYYCAREDKTARNAMDYWGQGTLVTVSS
VL: DIQMTQSPSSLSASVGDRVTITCRVSENIYSNLAWYQQKPGKAPKLLIYEATNLAEGVPSRFSGSGSGTDFTLTISSLQPEDFATYYCQHFWGTPYTFGQGTKLEIK
notes: anti-PVRIG positive control
Regarding B1, the “IC50 (read off the curve)” value in experiment [1] is approximately 800 pM; in experiment [2] it was approximately 0.9 nM; in experiment [5], approximately 0.7 nM; in experiment [6], approximately 0.8 nM. Moreover, the “EC50 (read off the curve)” value is approximately 100 pM in experiment [3] and approximately 300 pM in experiment [4].

B2: PVRIG-A118 (VHH)
VHH: QVQLVESGGGLVQAGGSLRLSCAASETYFDLYVMGWYRQAPGKDRELVATITYTGSIKIVDSVKDRFTISRGDAKNTVSLQMSSLKPEDTAVYFCNADPSGLGRKVYWGQGTQVTVSS
notes: tested as VHH-hinge-CH2-CH3 (human IgG1-Fc); not shown: human IgG1 hinge-CH2-CH3
Consider B2, for which the “EC50 (read off the curve)” value in experiment [7] was approximately 0.2 nM. Also, the “IC50 (read off the curve)” value in experiment [1] was approximately 600 pM; in experiment [8], approximately 600 pM; in experiment [6], approximately 1 nM.

B3: PVRIG-A50 (VHH)
VHH: EVQLVESGGGLVQPGGSLRLSCAASGFTFSYYDMSWVRQAPGKGLEWVSTINSNGGRTSYVDSVKGRFTISRDNTKNTLYLQMNSLKPEDTAVYYCVEGDPHNFGLENLSLRDFGSWGQGTQVTVSS
notes: as for B2
In the case of B3, the “EC50 (read off the curve)” value in experiment [7] was approximately 0.7 nM. The “IC50 (read off the curve)” value is approximately 2000 pM in experiment [1]; ~800 pM and ~1000 pM in experiment [8]; approximately 0.7 nM in experiment [6].

B4: PVRIG-A50-H1b (VHH)
VHH: B3 VHH with N54D, T75S, K87R, P88A, N108S, Q122M
notes: humanized VHH; also called A50.VH1b
With B4, the “IC50 (read off the curve)” value in experiment [5] was approximately 1 nM.
